According to patent US11054425B2, “System and method for identification and characterization of transglutaminase species” (Roche Sequencing Solutions, Inc., priority 2014, dated 2021):

Test system: Z-[GGGYRYRQGGGG (SEQ ID NO:75)]-OH
Test: GLDH assay of transglutaminase enzyme activity after storage
Type: biochemical
Conditions: 200 μM glutamine substrate, 10 mM cadaverine, 37° C., pH 7.4
Method: A further experiment was performed to determine the activity of KalbTG enzymes prepared from two different constructs, and stored at two different temperatures. The KalbTGt3 (SEQ ID NO:10) and KalbTGt1 (SEQ ID NO: 12) enzymes tested were obtained respectively from the EcSlyD2-Xa-KalbTGt3-8×His-tag construct (SEQ ID NO:8) and the EcSlyD2-Xa-KalbTGt1-8×His-tag construct (SEQ ID NO:11) described in Example 3. The activity of the two KalbTG enzymes was tested after storage at either 4° C. or −20° C. and compared against the activity of commercially available S. mobaraensis MTG according to a published protocol (Oteng-Pabi, et al., 2013. Analytical biochemistry 441(2): 169-173). In particular, assays were performed at 37° C. in 200 μl total volume. The assay mixture included 200 mM MOPS, 1 mM EDTA, and 1 mM DTT at pH 7.4. Further, α-ketoglutarate and NADH were added at a concentration of 500 μM, along with 2 U/ml GLDH, and between 0.1 μg and 1.0 μg of one of the transglutaminase enzymes. The glutamine substrate was 200 μM Z-[[…] (SEQ ID NO:75)]-OH, and the amine donor was 10 mM cadaverine, where Z represents a carboxybenzyl group. All data were collected in triplicate (average of 3 wells in a microtiter plate) and baseline activity (buffer without enzyme) subtracted.

B1: KalbTGt1: KalbTG enzyme without propeptide, expressed and purified with ammonium (protein)
chain: MLAPPLAEDRSYRTWRVEDYVEAWERYHGREMTEDERENLARGCIGVTVVNLNREDLSNPPLNLSFGSLRTAEAVQAALNKIVDTHPSPAQYEAAVAKDPILKRLKNVVKALPSWIDSAKLKASIFSKRFYSWQNPDWSEERAHTTYRPDRETDQVDMSTYRYRARPGYVNFDYGWFDQDTNTWWHANHEEPRMVVYQSTLRHYSRPLQDFDEQVFTVAFAKKDGHHHHHHHH
modifications: synthetic peptide sequence - KalbTGt1-8xHis; K-albida_MTG; 8xHis-tag
notes: KalbTG enzyme without propeptide, expressed and purified with ammonium
Activity (storage 4 ° C.): 1.4099 ± 0.1806 μmol NH3/min/mg Enzyme
Activity (storage −20 ° C.): 0.8630 ± 0.0259 μmol NH3/min/mg Enzyme

B2: S. mobaraensis MTG: commercially available Streptomyces mobaraensis microbial transglutaminase (protein)
chain: MRIRRRALVFATMSAVLCTAGFMPSAGEAAADNGAGEETKSYAETYRLTADDVANINALNESAPAASSAGPSFRAPDSDDRVTPPAEPLDRMPDPYRPSYGRAETVVNNYIRKWQQVYSHRDGRKQQMTEEQREWLSYGCVGVTWVNSGQYPTNRLAFASFDEDRFKNELKNGRPRSGETRAEFEGRVAKESFDEEKGFQRAREVASVMNRALENAHDESAYLDNLKKELANGNDALRNEDARSPFYSALRNTPSFKERNGGNHDPSRMKAVIYSKHFWSGQDRSSSADKRKYGDPDAFRPAPGTGLVDMSRDRNIPRSPTSPGEGFVNFDYGWFGAQTEADADKTVWTHGNHYHAPNGSLGAMHVYESKFRNWSEGYSDFDRGAYVITFIPKSWNTAPDKVKQGWP
modifications: protein-glutamine gamma-glutamyltransferase
notes: commercially available Streptomyces mobaraensis microbial transglutaminase
Activity (storage −20 ° C.): 1.1348 ± 0.0059 μmol NH3/min/mg Enzyme

B3: KalbTGt3: KalbTG enzyme from EcSlyD2-Xa-KalbTGt3-8×His after factor Xa and trypsin digest (protein)
chain: APLAPPLAEDRSYRTWRVEDYVEAWERYHGREMTEDERENLARGCIGVTVVNLNREDLSNPPLNLSFGSLRTAEAVQAALNKIVDTHPSPAQYEAAVAKDPILKRLKNVVKALPSWIDSAKLKASIFSKRFYSWQNPDWSEERAHTTYRPDRETDQVDMSTYRYRARPGYVNFDYGWFDQDTNTWWHANHEEPRMVVYQSTLRHYSRPLQDFDEQVFTVAFAKKDGGGSGHHHHHHHH
modifications: synthetic peptide sequence - KalbTGt3-8xHis-tag (post-trypsin digest); K-albida_MTG; 8xHis-tag
notes: KalbTG enzyme from EcSlyD2-Xa-KalbTGt3-8×His after factor Xa and trypsin digest
Activity (storage 4 ° C.): 0.1501 ± 0.0011 μmol NH3/min/mg Enzyme
Activity (storage −20 ° C.): 0.1528 ± 0.0400 μmol NH3/min/mg Enzyme
